Results reported in paper PMC9882600, “Asymmetric gating of a human hetero-pentameric glycine receptor” (Research Square, 2023).

Columns and labels:
[1] = target: human glycine receptor β subunit, cryo-EM construct βem (human) (UniProt P48167); assay: cryo-EM structure; α1emβem GlyR co-expressed and purified as a complex, 6 mg/ml in 20 mM Tris pH 8.0, 200 mM NaCl, 0.06% digitonin; vitrified without ligand (apo) or after 1 h with 2 mM glycine on ice (open, expanded-open, desensitized classes); ~3 mM fluorinated fos-choline 8 added before freezing
human glycine receptor β subunit, cryo-EM construct βem (human), sequence (P48167 23-497): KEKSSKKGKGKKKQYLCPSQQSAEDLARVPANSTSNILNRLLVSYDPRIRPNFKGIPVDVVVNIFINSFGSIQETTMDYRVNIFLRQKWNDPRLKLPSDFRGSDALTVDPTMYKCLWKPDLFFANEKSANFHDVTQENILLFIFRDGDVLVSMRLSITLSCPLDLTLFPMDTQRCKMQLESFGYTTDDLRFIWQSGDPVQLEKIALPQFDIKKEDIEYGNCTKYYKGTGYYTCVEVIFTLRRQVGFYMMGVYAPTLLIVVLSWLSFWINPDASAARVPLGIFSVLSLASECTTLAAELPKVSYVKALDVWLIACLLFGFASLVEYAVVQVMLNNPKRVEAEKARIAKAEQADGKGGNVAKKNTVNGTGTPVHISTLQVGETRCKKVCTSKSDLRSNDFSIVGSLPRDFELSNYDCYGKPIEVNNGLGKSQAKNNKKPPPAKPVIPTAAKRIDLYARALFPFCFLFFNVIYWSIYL

[2] = target: the molecule itself; assay: as above

B1: human glycine receptor α1 subunit, cryo-EM construct α1em (receptor)
chain: ARSAPKPMSPSDFLDKLMGRTSGYDARIRPNFKGPPVNVSCNIFINSFGSIAETTMDYRVNIFLRQQWNDPRLAYNEYPDDSLDLDPSMLDSIWKPDLFFANEKGAHFHEITTDNKLLRISRNGNVLYSIRITLTLACPMDLKNFPMDVQTCIMQLESFGYTMNDLIFEWQEQGAVQVADGLTLPQFILKEEKDLRYCTKHYNTGKFTCIEARFHLERQMGYYLIQMYIPSLLIVILSWISFWINMDAAPARVGLGITTVLTMTTQSSGSRASLPKVSYVKAIDIWMAVCLLFVFSALLEYAAVNFVSRQHKELLGSSGEEMRKLFIQRAKKIDKISRIGFPMAFLIFNMFYWIIYKIVRREDVHNQ
notes: glycine receptor α1 subunit, human, NCBI NP_001139512.1; residues before the M3/M4 loop stretch R316-P381 that was replaced by GSSG; the lists of unbuilt residues begin at A1 and give 367 aa in total; linker that replaces the M3/M4 loop residues R316-P381; residues after the replaced M3/M4 loop stretch, to Q429 (last residue named in the lists of unbuilt residues); Four copies stand in the …
[1]
  stoichiometry N: 4 α1:β
[2]
  binding result: binds
